Target: H1 stem (recombinant HA stem construct #4900 designed based on H1N1 A/Brisbane/59/2007 HA) (influenza A virus H1N1 A/Brisbane/59/2007)
Assay: BLI

Substance: somatic CR9114 Fab
- Kd: < 0.1 nM

From article PMC13638050
